The values below come from US20190085082A1 (CANCER RESEARCH TECHNOLOGY, published 2019).

Experiment [1] has as its target T1, murine CLEC14A-Fc fusion protein (mouse, UniProt Q8VCP9 22-386).
T1 construct: extracellular domain; also called CM; mCLEC14A-Fc; not shown: human Fc tag from the pcDNA3-Fc plasmid
T1 sequence (looked up): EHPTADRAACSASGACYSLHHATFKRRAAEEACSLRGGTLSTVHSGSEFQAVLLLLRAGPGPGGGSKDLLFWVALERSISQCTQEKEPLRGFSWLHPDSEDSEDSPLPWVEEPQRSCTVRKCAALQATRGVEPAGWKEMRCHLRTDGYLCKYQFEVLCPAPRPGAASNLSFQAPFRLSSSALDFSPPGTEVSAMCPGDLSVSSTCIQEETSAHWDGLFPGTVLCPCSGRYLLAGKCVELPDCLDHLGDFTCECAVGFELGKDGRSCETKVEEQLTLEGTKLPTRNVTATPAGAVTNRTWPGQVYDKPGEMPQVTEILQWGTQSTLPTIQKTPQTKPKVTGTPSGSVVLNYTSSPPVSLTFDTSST
In words: ELISA of hybridoma supernatants on absorbed antigen. The procedure:
More than 500 HAT-resistant hybridoma clones from each mouse were obtained. All of the clone supernatants were tested twice with 4 days interval by ELISA against three absorbed antigens (CM, CH and Fc). […] The positives were cloned 2-4 times by the limiting dilution method, propagated in culture flasks and injected into mice for ascites. One clone (CRT-3) was the result of immunisation with CLEC14a human-AP (CHAP), and the other clone (CRT-2) was the result of immunisation with CLEC14a mouse-AP (CM-AP).
A general note: An ELISA detects its analyte on a solid surface through an enzyme-linked reagent.

Experiment [2] deals with T2, full length human CLEC14A on cells (engineered CHO, SEND or 293 cells; HUVECs) (human, UniProt Q86T13 22-490).
T2 construct: HUVECs express it naturally; also called huCLEC
T2 sequence: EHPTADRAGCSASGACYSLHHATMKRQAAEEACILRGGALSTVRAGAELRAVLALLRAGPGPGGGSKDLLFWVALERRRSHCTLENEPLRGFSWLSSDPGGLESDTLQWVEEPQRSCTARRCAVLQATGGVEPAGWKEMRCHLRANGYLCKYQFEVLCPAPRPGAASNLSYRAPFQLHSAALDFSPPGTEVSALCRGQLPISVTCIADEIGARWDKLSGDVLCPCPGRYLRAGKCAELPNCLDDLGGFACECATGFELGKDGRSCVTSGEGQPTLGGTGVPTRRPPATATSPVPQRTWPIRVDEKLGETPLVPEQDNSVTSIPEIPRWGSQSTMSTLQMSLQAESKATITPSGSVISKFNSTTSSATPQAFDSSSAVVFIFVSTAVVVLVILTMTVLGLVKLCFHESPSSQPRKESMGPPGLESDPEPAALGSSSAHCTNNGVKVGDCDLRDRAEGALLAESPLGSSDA
The experiment in a line: fluorescence microscopy of HUVEC treated with CRT-3, antibody localisation at 0 and 90 minutes.

In experiment [3] the target is T3, thrombomodulin (CD141), wild type, with C-terminal GFP tag, expressed on HEK293T cells (UniProt P07204 19-575).
T3 construct: whole, on cells; also called WT CD141; VVT CD141; not shown: C-terminal GFP tag
In words: flow cytometry, HEK293T cells transfected with thrombomodulin (C-terminal GFP tag, GFP-positive cells gated).

T3 sequence (P07204 19-575): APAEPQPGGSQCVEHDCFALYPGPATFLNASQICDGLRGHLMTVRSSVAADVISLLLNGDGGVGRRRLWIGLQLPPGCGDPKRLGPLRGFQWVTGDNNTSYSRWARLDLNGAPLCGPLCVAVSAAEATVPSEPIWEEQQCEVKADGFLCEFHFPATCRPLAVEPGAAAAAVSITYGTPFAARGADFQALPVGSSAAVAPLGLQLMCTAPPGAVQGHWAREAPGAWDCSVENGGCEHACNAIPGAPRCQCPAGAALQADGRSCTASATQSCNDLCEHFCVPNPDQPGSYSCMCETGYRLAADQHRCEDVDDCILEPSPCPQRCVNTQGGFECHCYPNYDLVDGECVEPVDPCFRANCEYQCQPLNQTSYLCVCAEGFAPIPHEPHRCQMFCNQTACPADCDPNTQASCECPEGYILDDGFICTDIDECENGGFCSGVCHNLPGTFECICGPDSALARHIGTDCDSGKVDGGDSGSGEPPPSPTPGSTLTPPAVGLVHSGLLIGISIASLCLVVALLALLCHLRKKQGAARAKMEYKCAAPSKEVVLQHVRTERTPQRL

B1: CRT-3 anti-CLEC14A monoclonal antibody (antibody, IgG1, V domains shown)
VH: EVQLQQSGTVLARPGASVKMSCKASGYTFTSYWMHWVKQRPGQGLEWIGAIYPGNSDTSYNQKFKGKAKLTAVTSTSTAYMELSSLTNEDSAVFYCTHYYGSDYAMDYWGQGTSVTV
VL: QIVLTQSPAIMSASLGERVTMTCTASSSVSSSYLHWYQQKPGSSPKLWIYSTSNLASGVPARFSGSGSGTSYSLTISSMEAEDAATYYCHQYHRSPRTFGGGTKLEIKR
As to B1, the binding result is listed as “binds” in experiment [1], “binds” in experiment [2] and “no binding” in experiment [3].
